# Patent US20090312249A1
# What was measured:
# [1] = target: MD-2 (myeloid differentiation protein-2) (UniProt Q9Y6Y9); assay: SPR (BIAcore 3000): TFL amine-coupled on a CM5 chip, MD-2 at 8 to 250 nM as analyte, 25 C, 1:1 Langmuir fit
# [2] = target: MD-2 (myeloid differentiation protein-2) (UniProt Q9Y6Y9); assay: SPR (BIAcore 3000), TFL amine-coupled on CM5 chip, MD-2 8-250 nM as analyte, 1:1 Langmuir model, 25 C
# Sequence of UniProt Q9Y6Y9 (Q9Y6Y9 19-160 limits assumed): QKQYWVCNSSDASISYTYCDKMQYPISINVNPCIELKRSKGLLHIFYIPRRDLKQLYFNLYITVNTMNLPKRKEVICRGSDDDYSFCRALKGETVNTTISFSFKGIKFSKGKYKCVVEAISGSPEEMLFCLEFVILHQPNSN
substance,measurement,setting,value
TFL (Fc-tagged hTLR4 full-length ectodomain) (Fc fusion),Kd,[1],0.0811 µM
same,koff,[1],0.00187 s⁻¹
same,kon,[1],23100 M⁻¹ s⁻¹
same,Kd,[2],0.081 µM
